Test results from US7314726B2, “Beta secretase exosite binding peptides and methods for identifying beta secretase modulators” (Bristol-Myers Squibb Company, priority 2002, dated 2008).
Values joined by “and” are separate entries in the source; they are usually repeats but may differ in a detail not shown here. Identical values can stand only once. Like-named read-outs stand apart in the source and are kept apart here. Each block holds one compound with its values, some of them ahead of it. Square brackets hold non-standard residues; d marks the D form. Peptide text beside a SMILES is read from it. Bpa = N[C@@H](Cc1ccc(C(=O)c2ccccc2)cc1)C(=O)O; Alexa488 = Alexa Fluor 488 fluorescent label

How the values were obtained:
[1] = Solubility of Bpa-mutated peptides in the competition assay; assay type: physicochemical; conditions: FIG. 11, Bpa scan; inhibition under determined
[2] = molecular target: T1, catalytic domain of human BACE expressed in a CHO cell line (Homo sapiens, UniProt P56817); assay: Fluorescently labeled EBP binding to BACE, fluorescence anisotropy; conditions: for Kd: pH 4.5 (50 mM acetate), 25° C., 1:1 binding model, read-out: binding constant (Kd) of labeled EBP
T1 construct: The cDNA for the catalytic domain of human BACE (residues 1-460) was PCR-amplified; human IgG1 heavy chain (C, cleaved yes); thrombin cleavage site (C); made in house; host or cells: CHO DG44 cells (stably transfected, secreted)
T1 sequence (P56817 46-460 limits assumed): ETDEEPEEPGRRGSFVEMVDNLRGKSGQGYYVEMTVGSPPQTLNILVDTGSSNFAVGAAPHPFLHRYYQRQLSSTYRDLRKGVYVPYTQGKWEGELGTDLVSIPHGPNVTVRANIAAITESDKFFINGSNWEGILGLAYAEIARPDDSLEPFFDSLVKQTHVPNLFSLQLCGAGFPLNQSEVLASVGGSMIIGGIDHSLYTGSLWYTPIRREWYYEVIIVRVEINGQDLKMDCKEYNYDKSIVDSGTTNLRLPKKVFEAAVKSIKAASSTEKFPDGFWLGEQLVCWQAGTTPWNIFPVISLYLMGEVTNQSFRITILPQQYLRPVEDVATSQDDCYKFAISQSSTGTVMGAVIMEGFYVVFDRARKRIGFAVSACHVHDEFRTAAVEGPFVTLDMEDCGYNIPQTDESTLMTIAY
Method: An assay to evaluate the binding of BACE to EBPs labeled with a fluorescent molecule (for example, but not limited to Alexa488) was developed. This assay uses the catalytic domain of human BACE expressed in a CHO cell line (according to Example 3) and labeled EBPs such as Molecule X shown in FIG. 4. The change in fluorescent anisotropy of the EBP peptide upon binding to BACE is monitored.
Peptides were dissolved in 100% DMSO (dimethyl sulfoxide) at 10 mM concentration, and then diluted 10-fold into deionized water. The concentration of the labeled peptides was determined by their absorbance at 495 nm (ε=71000 cm^−1M^−1). The concentration of selected unlabeled peptides was determined by their Tyr absorbance at 276 nm (ε=1390 cm^−1M^−1 per Tyr residue).
The binding was carried out at pH 7.1 (PBS buffer) and pH 4.5 (50 mM acetate buffer) in the presence of 1% DMSO. Fluorescence anisotropy was measured at 25° C. in an AVIV fluorometer. The excitation and emission wavelengths were set to 495 and 519 nm, respectively. The excitation and emission slit width were 4 and 10 nm, respectively. A concentrated BACE stock was used to titrate a 300 μl solution of 10 nM labeled EBP. The final BACE concentration ranges from 10 to 5000 nM. After the addition of BACE, the solution was mixed for 10 times with a pipettor. The fluorescence anisotropy was averaged over a 5 minute period.
The change in anisotropy was plotted against the BACE concentration (see, for example, FIG. 5). The Kd of the labeled EBP as well as the initial (r0) and final anisotropy (rb) of the labeled EBP were calculated from curve fitting using the program Kaleidagraph. The equation used to fit the binding data is identical to equation 1 in Lai et al., (2000) Arch. Biochem. Biophys. 381:278-284.

[3] = molecular target: T2, catalytic domain of BACE purified from E. coli cells (Homo sapiens, UniProt P56817); assay: Binding of labeled EBP to BACE purified from E. coli cells; conditions: compared with BACE purified from CHO cells
T2 construct: the catalytic domain of BACE purified from E. coli cells; made in house; host or cells: E. coli
T2 sequence (P56817 46-457 limits assumed): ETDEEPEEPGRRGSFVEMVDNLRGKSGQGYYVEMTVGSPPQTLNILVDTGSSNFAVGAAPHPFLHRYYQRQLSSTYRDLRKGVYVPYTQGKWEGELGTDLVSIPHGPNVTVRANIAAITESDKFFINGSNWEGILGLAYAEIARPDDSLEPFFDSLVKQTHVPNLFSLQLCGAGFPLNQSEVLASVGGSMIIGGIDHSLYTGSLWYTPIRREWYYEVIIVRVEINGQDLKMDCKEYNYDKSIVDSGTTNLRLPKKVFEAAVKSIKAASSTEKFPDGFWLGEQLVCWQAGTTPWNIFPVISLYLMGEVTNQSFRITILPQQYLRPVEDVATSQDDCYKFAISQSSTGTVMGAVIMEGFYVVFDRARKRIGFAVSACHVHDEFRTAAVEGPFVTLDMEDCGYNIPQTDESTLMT
Method: Binding of Molecule Y1 to the catalytic domain of BACE purified from E. coli cells was carried out to determine the effect of glycosylation on the EBP binding.

BACE [4] = molecular target: T3, BACE (Homo sapiens, UniProt P56817); assay: BACE cleavage assay with MCA-[…](-dnp)-COOH substrate, HPLC analysis; assay type: biochemical; conditions: 0.1 nM BACE, 25 μM substrate peptide, 60 minutes at 25° C.; read-out: IC50, inhibition of proteolytic activity of BACE
Method: Molecule Y3 was tested in a BACE cleavage assay using the peptide MCA-[…](-dnp)-COOH (SEQ ID NO:107) as a substrate. The assay was carried out essentially as described in Mallender et al., (2001) Mol. Pharmacol. 59:619-626 and in Marcinkeviciene et al., (2001) J. Biol. Chem. 276: 23790-23794. A concentration of 0.1 nM BACE was incubated with Molecule Y3 at various concentrations for 15 minutes before substrate peptide was added to a final concentration of 25 μM. The reaction was allowed to proceed for 60 minutes at 25° C. before it was stopped by boiling. The reaction mixture was separated on a C18 column using reverse phase HPLC (Waters, Milford, Mass.). The IC50 value was calculated using the Langmuir isotherm equation (Copeland, R. A., Enzymes: A Practical Introduction to Structure, Mechanism, and Data Analysis, (2nd ed), Wiley-VCH, New York, N.Y. (2000)).
Target sequence in this assay (P56817 46-457 limits assumed): as above

BACE [5] = molecular target: T3, BACE; assay: Phage ELISA of phage-displayed peptides on immobilised BACE; assay type: binding; set-up: The cDNA for the catalytic domain of human BACE (residues 1-460) was PCR-amplified; human IgG1 heavy chain (C, cleaved yes); thrombin cleavage site (C); made in house; host or cells: CHO DG44 cells (stably transfected, secreted); conditions: peptides from solution phase panning; tested at pH 5.0
Target sequence in this assay (P56817 46-460 limits assumed): as the sequence (P56817 46-460 limits assumed) above

solubility [1]: limited solubility
Compound: CC(=O)N[C@@H](Cc1ccc(O)cc1)C(=O)N1CCC[C@H]1C(=O)N[C@@H](Cc1ccc(O)cc1)C(=O)N[C@@H](Cc1ccccc1)C(=O)N[C@@H](Cc1ccc(C(=O)c2ccccc2)cc1)C(=O)N1CCC[C@H]1C(=O)N[C@@H](CC(C)C)C(N)=O [I9B] (Ac-YPYF[Bpa]PL-NH2)

enhancement of affinity in the presence of OM99-2 ([2]; in the presence of 10 μM OM99-2): 5 fold
Kd ([2]; listed as Y1): 58 nM and 57 nM
Compound: Molecule Y1: peptide YPYFIPL (BMS-593925) with C-terminal Alexa488 label, FIG. 4 (Ac-YPYFIPL-Alexa488; also: linker between peptide and Alexa488 not given here)
binding affinity for E. coli expressed (non-glycosylated) human BACE [3]: the same as that of human BACE purified from CHO cells

solubility [1]: limited solubility
Compound: CC[C@H](C)[C@H](NC(=O)[C@H](Cc1ccccc1)NC(=O)[C@H](Cc1ccc(O)cc1)NC(=O)[C@H](Cc1ccc(C(=O)c2ccccc2)cc1)NC(=O)[C@H](Cc1ccc(O)cc1)NC(C)=O)C(=O)N1CCC[C@H]1C(=O)N[C@@H](CC(C)C)C(N)=O [P6B] (Ac-Y[Bpa]YFIPL-NH2)

Kd [2]: 48 nM
IC50 (BACE [4]): 731 nM
Compound: Molecule Y3: analog of Molecule Y1 with different length of linker between Alexa488 and the peptide (Ac-YPYFIPL-Alexa488; also: linker between peptide and Alexa488 not given here)

phage ELISA binding to BACE (BACE [5]): strong and specific binding
Compound: ETWPRFIPYHALTQQTLKHQQHT

phage ELISA binding to BACE (BACE [5]): strong and specific binding
Compound: TAEYESRTARTAPPAPTQHWPFFIRST
